Experimental data: publication PMC12208539, “PPIL2 is a target of the JAK2/STAT5 pathway and promotes myeloproliferation via degradation of p53” (The Journal of Clinical Investigation, 2025)

Biological target: T1, recombinant His-p53 (UniProt P04637 1-393)
T1 construct: p53 from pET15b-p53 (Addgene plasmid 24859); also called pET15b-p53; source: recombinant, pET15b-p53 (Addgene)
Assay: pull-down; GST pulldown: 100 μg recombinant GST-PPIL2 protein with 100 μg recombinant His-p53 and MagneGST glutathione beads overnight at 4°C; washes with TENT buffer (1% Triton X-100, 140 mM NaCl, 2 mM EDTA, 20 mM Tris pH 8.0)
Settings: both partners purified

T1 sequence (P04637 whole entry): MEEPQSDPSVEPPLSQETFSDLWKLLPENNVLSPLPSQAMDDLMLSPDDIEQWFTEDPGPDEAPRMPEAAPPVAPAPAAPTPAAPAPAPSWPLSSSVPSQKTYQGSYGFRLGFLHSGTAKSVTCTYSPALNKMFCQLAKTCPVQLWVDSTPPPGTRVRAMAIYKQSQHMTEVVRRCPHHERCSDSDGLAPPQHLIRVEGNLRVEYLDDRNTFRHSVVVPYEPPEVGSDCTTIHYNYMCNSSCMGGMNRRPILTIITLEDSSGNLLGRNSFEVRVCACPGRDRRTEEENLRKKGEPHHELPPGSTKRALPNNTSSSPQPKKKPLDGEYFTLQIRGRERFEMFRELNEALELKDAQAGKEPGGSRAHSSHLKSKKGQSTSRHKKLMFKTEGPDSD

B1: recombinant GST-PPIL2-U-box (domain or fragment, UniProt Q13356 1-190, looked up)
chain: MGKRQHQKDKMYITCAEYTHFYGGKKPDLPQTNFRRLPFDHCSLSLQPFVYPVCTPDGIVFDLLNIVPWLKKYGTNPSNGEKLDGRSLIKLNFSKNSEGKYHCPVLFTVFTNNTHIVAVRTTGNVYAYEAVEQLNIKAKNFRDLLTDEPFSRQDIITLQDPTNLDKFNVSNFYHVKNNMKIIDPDEEKAK
notes: peptidylprolyl isomerase-like 2 (PPIL2), U-box domain construct, residues 1-190; the tie of 1-190 to the U-box goes by the order of the list; also called GST-PPIL2 (1-190); U-box domain of PPIL2; source: recombinant, prokaryotic expression vector pGEX6p-3
binding result: binds
